Measurements reported in IntAct's records for PubMed 25910212.

B1: Mothers against decapentaplegic homolog 3 (Homo sapiens), P84022 (parent)
chain: MSSILPFTPPIVKRLLGWKKGEQNGQEEKWCEKAVKSLVKKLKKTGQLDELEKAITTQNVNTKCITIPRSLDGRLQVSHRKGLPHVIYCRLWRWPDLHSHHELRAMELCEFAFNMKKDEVCVNPYHYQRVETPVLPPVLVPRHTEIPAEFPPLDDYSHSIPENTNFPAGIEPQSNIPETPPPGYLSEDGETSDHQMNHSMDAGSPNLSPNPMSPAHNNLDLQPVTYCEPAFWCSISYYELNQRVGETFHASQPSMTVDGFTDPSNSERFCLGLLSNVNRNAAVELTRRHIGRGVRLYYIGGEVFAECLSDSAIFVQSPNCNQRYGWHPATVCKIPPGCNLKIFNNQEFAALLAQSVNQGFEAVYQLTRMCTIRMSFVKGWGAEYRRQTVTSTPCWIELHLNGPLQWLDKVLTQMGSPSIRCSSVS
B2: Low density lipoprotein receptor adapter protein 1 (Homo sapiens), Q5SW96 (parent)
chain: MDALKSAGRALIRSPSLAKQSWGGGGRHRKLPENWTDTRETLLEGMLFSLKYLGMTLVEQPKGEELSAAAIKRIVATAKASGKKLQKVTLKVSPRGIILTDNLTNQLIENVSIYRISYCTADKMHDKVFAYIAQSQHNQSLECHAFLCTKRKMAQAVTLTVAQAFKVAFEFWQVSKEEKEKRDKASQEGGDVLGARQDCTPSLKSLVATGNLLDLEETAKAPLSTVSANTTNMDEVPRPQALSGSSVVWELDDGLDEAFSRLAQSRTNPQVLDTGLTAQDMHYAQCLSPVDWDKPDSSGTEQDDLFSF
partner: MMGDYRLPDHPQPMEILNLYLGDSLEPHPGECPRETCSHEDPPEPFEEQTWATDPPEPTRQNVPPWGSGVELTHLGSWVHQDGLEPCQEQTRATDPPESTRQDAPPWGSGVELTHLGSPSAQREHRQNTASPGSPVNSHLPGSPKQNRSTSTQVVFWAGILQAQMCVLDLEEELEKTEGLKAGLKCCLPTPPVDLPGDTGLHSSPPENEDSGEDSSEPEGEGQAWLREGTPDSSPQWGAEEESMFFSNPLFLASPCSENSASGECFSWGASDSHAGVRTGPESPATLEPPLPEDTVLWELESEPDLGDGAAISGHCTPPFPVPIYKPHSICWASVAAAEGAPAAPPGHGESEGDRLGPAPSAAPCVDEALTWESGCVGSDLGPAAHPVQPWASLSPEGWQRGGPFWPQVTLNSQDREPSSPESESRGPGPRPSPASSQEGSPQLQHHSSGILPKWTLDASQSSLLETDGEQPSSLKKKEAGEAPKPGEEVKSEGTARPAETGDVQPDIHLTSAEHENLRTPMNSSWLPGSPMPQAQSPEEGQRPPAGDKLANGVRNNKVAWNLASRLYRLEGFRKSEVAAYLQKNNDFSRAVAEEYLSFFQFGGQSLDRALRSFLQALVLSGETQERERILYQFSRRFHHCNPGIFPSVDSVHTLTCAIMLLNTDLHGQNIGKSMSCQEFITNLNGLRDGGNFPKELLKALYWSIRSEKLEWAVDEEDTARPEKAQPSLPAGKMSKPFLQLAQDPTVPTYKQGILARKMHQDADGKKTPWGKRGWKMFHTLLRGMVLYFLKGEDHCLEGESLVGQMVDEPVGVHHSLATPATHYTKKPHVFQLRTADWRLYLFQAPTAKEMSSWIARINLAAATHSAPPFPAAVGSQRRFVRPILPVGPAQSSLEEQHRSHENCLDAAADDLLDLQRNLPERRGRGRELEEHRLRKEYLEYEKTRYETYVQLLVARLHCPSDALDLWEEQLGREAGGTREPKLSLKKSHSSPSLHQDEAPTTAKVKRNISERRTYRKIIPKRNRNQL
B3: Glycogen phosphorylase, liver form (Homo sapiens), P06737 (parent)
chain: MAKPLTDQEKRRQISIRGIVGVENVAELKKSFNRHLHFTLVKDRNVATTRDYYFALAHTVRDHLVGRWIRTQQHYYDKCPKRVYYLSLEFYMGRTLQNTMINLGLQNACDEAIYQLGLDIEELEEIEEDAGLGNGGLGRLAACFLDSMATLGLAAYGYGIRYEYGIFNQKIRDGWQVEEADDWLRYGNPWEKSRPEFMLPVHFYGKVEHTNTGTKWIDTQVVLALPYDTPVPGYMNNTVNTMRLWSARAPNDFNLRDFNVGDYIQAVLDRNLAENISRVLYPNDNFFEGKELRLKQEYFVVAATLQDIIRRFKASKFGSTRGAGTVFDAFPDQVAIQLNDTHPALAIPELMRIFVDIEKLPWSKAWELTQKTFAYTNHTVLPEALERWPVDLVEKLLPRHLEIIYEINQKHLDRIVALFPKDVDRLRRMSLIEEEGSKRINMAHLCIVGSHAVNGVAKIHSDIVKTKVFKDFSELEPDKFQNKTNGITPRRWLLLCNPGLAELIAEKIGEDYVKDLSQLTKLHSFLGDDVFLRELAKVKQENKLKFSQFLETEYKVKINPSSMFDVQVKRIHEYKRQLLNCLHVITMYNRIKKDPKKLFVPRTVIIGGKAAPGYHMAKMIIKLITSVADVVNNDPMVGSKLKVIFLENYRVSLAEKVIPATDLSEQISTAGTEASGTGNMKFMLNGALTIGTMDGANVEMAEEAGEENLFIFGMRIDDVAALDKKGYEAKEYYEALPELKLVIDQIDNGFFSPKQPDLFKDIINMLFYHDRFKVFADYEAYVKCQDKVSQLYMNPKAWNTMVLKNIAASGKFSSDRTIKEYAQNIWNVEPSDLKISLSNESNKVNGN
partner: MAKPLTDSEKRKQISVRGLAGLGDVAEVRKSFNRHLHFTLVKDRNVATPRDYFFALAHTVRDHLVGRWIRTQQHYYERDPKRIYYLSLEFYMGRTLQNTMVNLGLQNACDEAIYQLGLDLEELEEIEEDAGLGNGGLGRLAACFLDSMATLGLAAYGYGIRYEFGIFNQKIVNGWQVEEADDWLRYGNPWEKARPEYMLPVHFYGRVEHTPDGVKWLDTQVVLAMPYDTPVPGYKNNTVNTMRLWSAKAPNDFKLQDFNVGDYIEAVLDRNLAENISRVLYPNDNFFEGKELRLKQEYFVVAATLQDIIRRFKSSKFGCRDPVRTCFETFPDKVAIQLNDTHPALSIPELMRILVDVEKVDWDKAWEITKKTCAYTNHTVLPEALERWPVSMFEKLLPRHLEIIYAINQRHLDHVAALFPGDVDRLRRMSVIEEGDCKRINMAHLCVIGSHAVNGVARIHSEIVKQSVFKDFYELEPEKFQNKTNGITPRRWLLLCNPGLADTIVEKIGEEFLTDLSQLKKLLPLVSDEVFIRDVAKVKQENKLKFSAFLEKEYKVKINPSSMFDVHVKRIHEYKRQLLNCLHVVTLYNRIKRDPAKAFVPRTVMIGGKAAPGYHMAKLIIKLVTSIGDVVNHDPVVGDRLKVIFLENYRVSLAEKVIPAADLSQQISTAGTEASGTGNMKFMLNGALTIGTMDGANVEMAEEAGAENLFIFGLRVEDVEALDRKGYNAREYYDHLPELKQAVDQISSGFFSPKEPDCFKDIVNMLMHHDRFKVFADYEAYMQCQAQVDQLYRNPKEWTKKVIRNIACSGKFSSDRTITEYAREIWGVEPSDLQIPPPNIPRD

Variants of: B1
Conditions: with wwp1_human WWP1, Q9H0M0

For I170V, which “effect of a mutation on the interaction” value is on record?
Its value is “with no effect”.

N197I was tested. Which “effect of a mutation on the interaction” value did it give?
Its value is “with no effect”.

Variants of: B1
Conditions: with crx_human CRX

Which “effect of a mutation on the interaction” value does the source give for I170V here?
Its value is “with no effect”.

With N197I as the variant, how does the “effect of a mutation on the interaction” value read?
The value was “with no effect”.

Variants of: B1
Conditions: with wwp2_human WWP2, O00308
wwp2_human WWP2, O00308, sequence (O00308 whole entry): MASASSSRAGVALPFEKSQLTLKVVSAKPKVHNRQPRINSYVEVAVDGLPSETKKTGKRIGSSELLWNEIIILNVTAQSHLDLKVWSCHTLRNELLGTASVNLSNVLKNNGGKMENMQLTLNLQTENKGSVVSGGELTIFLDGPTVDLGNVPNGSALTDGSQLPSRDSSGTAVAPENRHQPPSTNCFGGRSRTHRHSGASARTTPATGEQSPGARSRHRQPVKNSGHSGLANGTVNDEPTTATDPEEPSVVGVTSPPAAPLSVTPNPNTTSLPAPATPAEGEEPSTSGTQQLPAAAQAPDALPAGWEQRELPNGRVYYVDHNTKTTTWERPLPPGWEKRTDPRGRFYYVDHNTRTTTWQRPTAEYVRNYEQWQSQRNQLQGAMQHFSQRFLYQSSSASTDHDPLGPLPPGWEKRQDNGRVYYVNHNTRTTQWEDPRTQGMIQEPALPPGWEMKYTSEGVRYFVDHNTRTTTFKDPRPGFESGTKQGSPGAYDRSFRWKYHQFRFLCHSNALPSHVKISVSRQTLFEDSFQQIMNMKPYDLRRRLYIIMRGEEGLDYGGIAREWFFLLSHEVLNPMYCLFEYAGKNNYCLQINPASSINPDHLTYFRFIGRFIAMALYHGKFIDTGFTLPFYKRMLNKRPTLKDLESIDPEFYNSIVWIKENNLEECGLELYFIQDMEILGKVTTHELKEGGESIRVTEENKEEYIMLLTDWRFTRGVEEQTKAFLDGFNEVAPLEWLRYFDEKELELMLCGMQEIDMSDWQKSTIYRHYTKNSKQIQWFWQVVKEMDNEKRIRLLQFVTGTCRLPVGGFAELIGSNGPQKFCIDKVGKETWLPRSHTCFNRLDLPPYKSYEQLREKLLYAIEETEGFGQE

I170V was tested. Which “effect of a mutation on the interaction” value did it give?
Its value is “with no effect”.

N197I was tested. Which “effect of a mutation on the interaction” value did it give?
Its value is “with no effect”.

Variants of: B1
Conditions: with smad4_human SMAD4, Q13485
smad4_human SMAD4, Q13485, sequence (Q13485 whole entry): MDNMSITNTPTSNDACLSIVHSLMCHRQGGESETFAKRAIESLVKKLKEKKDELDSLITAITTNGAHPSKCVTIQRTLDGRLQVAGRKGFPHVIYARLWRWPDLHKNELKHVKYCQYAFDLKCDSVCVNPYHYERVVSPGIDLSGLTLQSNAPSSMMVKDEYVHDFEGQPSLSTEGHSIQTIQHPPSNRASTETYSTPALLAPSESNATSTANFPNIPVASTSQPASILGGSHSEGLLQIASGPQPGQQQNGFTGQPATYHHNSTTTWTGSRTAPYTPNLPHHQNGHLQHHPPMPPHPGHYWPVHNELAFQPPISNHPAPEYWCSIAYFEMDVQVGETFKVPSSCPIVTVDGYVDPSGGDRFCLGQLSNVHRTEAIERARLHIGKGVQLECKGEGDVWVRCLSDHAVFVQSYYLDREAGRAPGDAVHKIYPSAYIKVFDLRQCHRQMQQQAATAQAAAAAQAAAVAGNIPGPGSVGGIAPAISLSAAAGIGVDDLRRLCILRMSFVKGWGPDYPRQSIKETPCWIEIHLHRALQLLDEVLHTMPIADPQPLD

Which “effect of a mutation on the interaction” value does the source give for I170V here?
The value was “with no effect”.

Which “effect of a mutation on the interaction” value does the source give for N197I here?
Its value is “with no effect”.

Variants of: B1
Conditions: with meox2_human MEOX2, P50222
meox2_human MEOX2, P50222, sequence (P50222 whole entry): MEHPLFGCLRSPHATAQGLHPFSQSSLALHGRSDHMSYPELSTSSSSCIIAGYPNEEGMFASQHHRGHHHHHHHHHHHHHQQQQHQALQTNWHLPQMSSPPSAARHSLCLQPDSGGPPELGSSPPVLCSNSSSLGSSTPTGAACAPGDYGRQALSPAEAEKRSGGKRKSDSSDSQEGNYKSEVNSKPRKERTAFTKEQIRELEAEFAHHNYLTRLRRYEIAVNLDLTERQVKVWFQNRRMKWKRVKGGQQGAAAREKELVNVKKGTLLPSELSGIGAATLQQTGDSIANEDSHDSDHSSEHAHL

How did the “effect of a mutation on the interaction” value turn out when I170V was run?
The value was “with no effect”.

How did the “effect of a mutation on the interaction” value turn out when N197I was run?
Its value is “with no effect”.

Variants of: B1
Conditions: with ccd33_human CCDC33, Q8N5R6
ccd33_human CCDC33, Q8N5R6, sequence (Q8N5R6 whole entry): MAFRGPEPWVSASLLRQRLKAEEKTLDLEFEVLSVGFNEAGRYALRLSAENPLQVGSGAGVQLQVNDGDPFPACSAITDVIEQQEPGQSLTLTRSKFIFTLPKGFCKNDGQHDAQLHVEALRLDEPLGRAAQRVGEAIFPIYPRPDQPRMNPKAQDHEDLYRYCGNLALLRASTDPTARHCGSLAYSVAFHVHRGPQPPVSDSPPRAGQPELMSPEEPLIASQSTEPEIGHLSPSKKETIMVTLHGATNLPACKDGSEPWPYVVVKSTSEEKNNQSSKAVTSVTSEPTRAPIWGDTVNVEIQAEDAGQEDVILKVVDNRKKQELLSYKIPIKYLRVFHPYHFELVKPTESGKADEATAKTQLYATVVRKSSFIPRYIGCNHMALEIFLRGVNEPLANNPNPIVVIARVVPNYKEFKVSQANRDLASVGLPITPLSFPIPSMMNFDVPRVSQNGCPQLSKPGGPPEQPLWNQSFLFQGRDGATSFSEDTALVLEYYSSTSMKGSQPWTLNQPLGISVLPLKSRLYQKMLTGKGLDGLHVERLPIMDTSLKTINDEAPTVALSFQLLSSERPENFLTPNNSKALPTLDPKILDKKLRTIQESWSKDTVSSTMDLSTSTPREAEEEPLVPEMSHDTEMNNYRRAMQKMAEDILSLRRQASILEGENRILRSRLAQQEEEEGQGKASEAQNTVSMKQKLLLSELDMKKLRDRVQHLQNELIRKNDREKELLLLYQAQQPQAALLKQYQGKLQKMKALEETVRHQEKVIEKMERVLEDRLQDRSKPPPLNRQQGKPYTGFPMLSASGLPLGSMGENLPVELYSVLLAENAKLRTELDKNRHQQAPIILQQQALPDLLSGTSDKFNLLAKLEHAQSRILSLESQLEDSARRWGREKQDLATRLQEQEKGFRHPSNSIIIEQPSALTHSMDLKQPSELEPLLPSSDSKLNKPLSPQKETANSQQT

For I170V, which “effect of a mutation on the interaction” value is on record?
Its value is “with no effect”.

Which “effect of a mutation on the interaction” value does the source give for N197I here?
The value was “with no effect”.

Variants of: B2
Conditions: with PSD4, Q8NDX1-2

For R238W, which “effect of a mutation on the interaction” value is on record?
Its value is “with no effect”.

Variants of: B3
Conditions: with pygb_human PYGB

N377K was tested. Which “effect of a mutation on the interaction” value did it give?
Its value is “with no effect”.
